The results in this text go back to patent US20220340636A1.

For test [1], the target named is human insulin receptor (hIR) (human) (UniProt P06213). Kind of test: cell-based or functional assay.
Test [2] addresses human IR-B overexpressed on NIH 3T3 mouse fibroblast cells (human) (UniProt P06213). Kind of test: cell-based or functional assay.
Test [3] has as its target human insulin receptor (hIR) (human) (UniProt P06213). Put plainly: binding to hIR, assay not described at this place; reference human insulin.
In test [4] the target is solubilised immuno-captured human IR (isoform B) (human) (UniProt P06213).
For test [5] the target is unchanged. Kind of test: competition binding on human IR-B (FIG. 2); reference PTM-free sCon-Ins G1.

In the case of B20 Tyr DOI analogue (ligand), in test [1], the fold increased potency in hIR activation (against DOI) worked out at 5 fold.

hIns[TyrB15, TyrB20, DOI] (ligand): the fold more active than hIns[DOI], Akt phosphorylation assay in test [2] was determined as 5 fold. The substance further yielded a fold increased potency in hIR activation (against DOI) in test [1] of 5 fold. For “DOI analogue with B10 Glu and B20 Tyr (ligand)”, the fold increase in potency compared to B20 Tyr alone in test [1] was 5 fold.

In test [1], “B10E, B20 biphenyl DOI analogue (ligand)” gave a fold higher potency than N10E, B20Y DOI of 3 fold; a fold increase of the potency of DOI of 100 fold; a percent of the potency of human insulin of 10%. As for Con-Ins G1 (ligand), in test [3], the fold less affinity than human insulin was found to be 30 fold. With sCon-Ins G1 (ligand), in test [4], the fold less active than hIns is 30 fold and the log [IC50 (nM)] was found to be 1.24 log nM. Also, the fold more active than the PTM-free analogue in test [5] came out at 4 fold.
